Patent US20030208037A1 (CYTOVIA, published 2003)
*: point of attachment. TFB = 2,3,4,5-tetrafluorobenzoyl; PFB = pentafluorobenzoyl; Cbz = O=C(OCc1ccccc1)*; R110 = rhodamine 110

T1: recombinant caspase-3 (UniProt P42574 29-277, limits assumed)
T1 sequence (looked up): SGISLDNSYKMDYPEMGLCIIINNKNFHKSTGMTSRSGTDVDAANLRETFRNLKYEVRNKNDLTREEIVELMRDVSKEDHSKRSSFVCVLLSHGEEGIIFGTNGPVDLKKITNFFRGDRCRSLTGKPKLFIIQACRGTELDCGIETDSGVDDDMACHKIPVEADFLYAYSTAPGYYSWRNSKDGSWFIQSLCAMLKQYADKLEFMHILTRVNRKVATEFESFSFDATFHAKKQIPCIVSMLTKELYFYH


Molecular target: T1, recombinant caspase-3
Test: cell-based or functional assay

Binder | increase in fluorescence on cleavage of the substrate (cell-free enzyme assay) | increase in fluorescence on cleavage of the substrate (cell-free enzyme assay, 10 uM substrate, 3 hours at 37 C)
Cbz-DEVD-{R110-PFB} [N-(Z-Asp-Glu-Val-Asp)-N'-pentafluorobenzoyl-Rhodamine 110] | > 10 fold | 
Ac-DEVD-{R110-TFB} [N-(Ac-DEVD)-N'-(2,3,4,5-tetrafluorobenzoyl)-R110] |  | ~50 fold
